5 molecules from PMC9249759, “Analysis of diverse double-strand break synapsis with Polλ reveals basis for unique substrate specificity in nonhomologous end-joining” can be followed below.

The target of data set [1] is T1, DNA polymerase lambda catalytic domain with brooch motif (Homo sapiens, UniProt Q9UGP5 235-575).
T1 sequence: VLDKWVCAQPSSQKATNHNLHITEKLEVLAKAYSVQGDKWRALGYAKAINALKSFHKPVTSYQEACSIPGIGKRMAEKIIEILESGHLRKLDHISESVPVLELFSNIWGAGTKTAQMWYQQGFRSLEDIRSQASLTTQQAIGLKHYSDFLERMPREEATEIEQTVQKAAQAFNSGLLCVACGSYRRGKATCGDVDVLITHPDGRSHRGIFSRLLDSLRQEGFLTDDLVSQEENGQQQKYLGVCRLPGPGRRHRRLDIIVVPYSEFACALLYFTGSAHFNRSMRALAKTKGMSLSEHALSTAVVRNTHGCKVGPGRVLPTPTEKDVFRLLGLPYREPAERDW
Put plainly: X-ray crystallography, 1.65 A; dUMPNPP, Ca2+/Mg2+ (metal A), Mg2+ (metal B); pre-catalytic; Crystals only: DNA with protein on ice or RT, then 0.91 mM dUMPNPP; SSB cacodylate pH 6.5/KCl/Mg acetate/PEG 8000 RT; DSB.A tripotassium citrate/PEG 3350 4 C; DSB.B Na sulfate/PEG 3350 RT; DSB.C cacodylate pH 6.5/ammonium sulfate/PEG 8K 4 C; DSB.D cacodylate pH 6.5/Ca acetate/PEG 8K 4 C, soaked in Mg acetate. As to conditions: protein: recombinant; tags: GST tag removed by TEV; two duplexes: blunt GCACTG:CAGTGC and CGGCA:GCCG (3' overhang 1 nt); no microhomology.

The target of data set [2] is T1, DNA polymerase lambda catalytic domain …. Put plainly: X-ray crystallography, 1.57 A; dUMPNPP, Mg2+; Crystals only: DNA with protein on ice or RT, then 0.91 mM dUMPNPP; SSB cacodylate pH 6.5/KCl/Mg acetate/PEG 8000 RT; DSB.A tripotassium citrate/PEG 3350 4 C; DSB.B Na sulfate/PEG 3350 RT; DSB.C cacodylate pH 6.5/ammonium sulfate/PEG 8K 4 C; DSB.D cacodylate pH 6.5/Ca acetate/PEG 8K 4 C, soaked in Mg acetate. As to conditions: protein: recombinant; tags: GST tag removed by TEV; 1-nt gap; template with upstream primer and downstream primer.

The target is the same in data set [3]. Put plainly: X-ray crystallography, 1.8 A; dUMPNPP, Na+ (metal A), Mg2+ (metal B); Crystals only: DNA with protein on ice or RT, then 0.91 mM dUMPNPP; SSB cacodylate pH 6.5/KCl/Mg acetate/PEG 8000 RT; DSB.A tripotassium citrate/PEG 3350 4 C; DSB.B Na sulfate/PEG 3350 RT; DSB.C cacodylate pH 6.5/ammonium sulfate/PEG 8K 4 C; DSB.D cacodylate pH 6.5/Ca acetate/PEG 8K 4 C, soaked in Mg acetate. As to conditions: protein: recombinant; tags: GST tag removed by TEV; two duplexes: ACTG:CAGTGC (3' overhang 2 nt) and CGGCAGC:GCCG (3' overhang 3 nt); 2-nt microhomology, 1-nt gap.

Data set [4] has the same target. The experiment in a line: X-ray crystallography, 2 A; dUMPNPP, Mg2+; Crystals only: DNA with protein on ice or RT, then 0.91 mM dUMPNPP; SSB cacodylate pH 6.5/KCl/Mg acetate/PEG 8000 RT; DSB.A tripotassium citrate/PEG 3350 4 C; DSB.B Na sulfate/PEG 3350 RT; DSB.C cacodylate pH 6.5/ammonium sulfate/PEG 8K 4 C; DSB.D cacodylate pH 6.5/Ca acetate/PEG 8K 4 C, soaked in Mg acetate. As to conditions: protein: recombinant; tags: GST tag removed by TEV; two duplexes: TACTG:CAGTGC (G:T mismatch at -2, 3' overhang 1 nt) and CGGCAG:GCCG (3' overhang 2 nt); 1-nt microhomology.

Data set [5] addresses T2, DNA polymerase lambda catalytic domain with brooch motif (DSB.B crystals) (Homo sapiens, UniProt Q9UGP5 233-575).
T2 sequence: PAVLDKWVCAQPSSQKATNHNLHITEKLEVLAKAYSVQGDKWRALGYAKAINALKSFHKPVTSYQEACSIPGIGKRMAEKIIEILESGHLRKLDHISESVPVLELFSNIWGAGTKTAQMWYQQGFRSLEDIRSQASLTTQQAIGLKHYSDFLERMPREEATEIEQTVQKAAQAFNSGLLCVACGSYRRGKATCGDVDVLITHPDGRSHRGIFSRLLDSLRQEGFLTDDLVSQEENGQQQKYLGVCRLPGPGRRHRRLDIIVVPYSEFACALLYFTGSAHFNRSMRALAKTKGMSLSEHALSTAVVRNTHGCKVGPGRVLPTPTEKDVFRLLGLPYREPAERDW
Put plainly: X-ray crystallography, 2.25 A; dUMPNPP, Mg2+ (metal B), Na+ in HhH2 site; Crystals only: DNA with protein on ice or RT, then 0.91 mM dUMPNPP; SSB cacodylate pH 6.5/KCl/Mg acetate/PEG 8000 RT; DSB.A tripotassium citrate/PEG 3350 4 C; DSB.B Na sulfate/PEG 3350 RT; DSB.C cacodylate pH 6.5/ammonium sulfate/PEG 8K 4 C; DSB.D cacodylate pH 6.5/Ca acetate/PEG 8K 4 C, soaked in Mg acetate. As to conditions: protein: recombinant; tags: GST tag removed by TEV; single-stranded upstream primer plus duplex CGGCAGC:GCCG (3' overhang 3 nt); 2-nt microhomology; primer 5' end mispairs with same primer of neighbouring complex.

B1: DSB.D blunt-ended (dsDNA)
DNA 1: GCACTG
DNA 2: CAGTGC
DNA 3: CGGCA
DNA 4: GCCG
modifications: 5'-phosphate on GCCG
With B1, in data set [1], the binding result is reported as “binds”.

B2: 1nt-gapped SSB (dsDNA)
DNA 1: CGGCAGTACTG
DNA 2: CAGTAC
DNA 3: GCCG
modifications: 5'-phosphate on GCCG
With B2, in data set [2], the binding result was “binds”.

B3: DSB.A complementary (dsDNA)
DNA 1: ACTG
DNA 2: CAGTGC
DNA 3: CGGCAGC
DNA 4: GCCG
modifications: 5'-phosphate on GCCG
Take B3: the binding result in data set [3] is on record as “binds”.

B4: DSB.C mismatched (dsDNA)
DNA 1: TACTG
DNA 2: CAGTGC
DNA 3: CGGCAG
DNA 4: GCCG
modifications: 5'-phosphate on GCCG
Turning to B4, the binding result in data set [4] is on record as “binds”.

B5: DSB.B without upstream template (mixed)
DNA: CAGTGC
? 1: CGGCAGC
? 2: GCCG
modifications: 5'-phosphate on GCCG
Regarding B5, in data set [5], the binding result is “binds”.
